{
  "source": "patent US20030166216",
  "proteins": {"B1": {"name": "human checkpoint kinase (hChk1) (enzyme)", "chain": "MAVPFVEDWDLVQTLGEGAYGEVQLAVNRVTEEAVAVKIVDMKRAVDCPENIKKEICINKMLNHENVVKFYGHRREGNIQYLFLEYCSGGELFDRIEPDIGMPEPDAQRFFHQLMAGVVYLHGIGITHRDIKPENLLLDERDNLKISDFGLATVFRYNNRERLLNKMCGTLPYVAPELLKRREFHAEPVDVWSCGIVLTAMLAGELPWDQPSDSCQEYSDWKEKKTYLNPWKKIDSAPLALLHKILVENPSARITIPDIKKDRWYNKPLKKGAKRPRVTSGGVSESPSGFSKHIQSNLDFSPVNSASSEENVKYSSSQPEPRTGLSLWDTSPSYIDKLVQGISFSQPTCPDHMLLNSQLLGTPGSSQNPWQRLVKRMTRFFTKLDADKSYQCLKETCEKLGYQWKKSCMNQVTISTTDRRNNKLIFKVNLLEMDDKILVDFRLSKGDGLEFKRHFLKIKGKLIDIVSSQKVWLPAT", "modifications": "possible His tag"}},
  "key": {"[1]": {"system": "mylein basic protein (MBP)"}, "[2]": {"system": "poly (Arg, Pro, Thr) 6:3:1"}, "[3]": {"system": "protein kinase C (PKC) substrate"}},
  "data": [
    {"protein": "B1", "values": [
      {"measurement": "in vitro protein kinase phosphorylation assay ([gamma-33P]ATP incorporation, cpm)", "setting": "casein", "result": "significant activity was also found with ... casein"},
      {"measurement": "in vitro protein kinase phosphorylation assay ([gamma-33P]ATP incorporation, cpm)", "setting": "poly (Arg, Ser) 3:1", "result": "hChk1 showed the highest phosphorylating activity using a calmodulin substrate or the synthetic peptide substrate, poly (Arg, Ser) 3:1"},
      {"measurement": "in vitro protein kinase phosphorylation assay ([gamma-33P]ATP incorporation, cpm)", "setting": "[1]", "result": "significant activity was also found with mylein basic protein (MBP)"},
      {"measurement": "in vitro protein kinase phosphorylation assay ([gamma-33P]ATP incorporation, cpm)", "setting": "[2]", "result": "significant activity was also found with ... poly (Arg, Pro, Thr) 6:3:1"},
      {"measurement": "in vitro protein kinase phosphorylation assay ([gamma-33P]ATP incorporation, cpm)", "setting": "[3]", "result": "significant activity was also found with ... protein kinase C (PKC) substrate"},
      {"measurement": "in vitro protein kinase phosphorylation assay ([gamma-33P]ATP incorporation, cpm)", "setting": "cAMP substrate", "result": "significant activity was also found with ... cAMP substrate"},
      {"measurement": "in vitro protein kinase phosphorylation assay ([gamma-33P]ATP incorporation, cpm)", "setting": "calmodulin substrate", "result": "hChk1 showed the highest phosphorylating activity using a calmodulin substrate or the synthetic peptide substrate, poly (Arg, Ser) 3:1"}
    ]}
  ]
}
